{
  "source": "paper PMC7617965",
  "about": "“Interaction with AK2A links AIFM1 to cellular energy metabolism” (Molecular cell, 2025)",
  "molecules": {"B1": {"name": "MIA40 C4S,C53S,C55S (natural protein, UniProt Q8N4Q1 1-142, looked up)", "chain": "MSYSRQEGKDRIIFVTKEDHETPSSAELVADDPNDPYEEHGLILPNGNINWNSPSLGGMASGPCGEQFKSAFSCFHYSTEEIKGSDCVDQFRAMQECMQKYPDLYPQEDEDEEEEREKKPAEQAEETAPIEATATKEEEGSS", "notes": "MIA40 (CHCHD4) with C4S, C53S and C55S; Only aa 2-20 are seen in the cryo-EM map; also called MIA40 SPS; purified MIA40; source: E. coli Rosetta2 (DE3), purified (Ni Sepharose)"}, "B2": {"name": "AK2A WT peptide (peptide)", "peptide": "ATSKDLVMFI-NH2", "notes": "C-terminus of AK2 isoform A; serine stands where AK2A bears C232; also called AK2A peptide; source: synthetic peptide"}, "B3": {"name": "MIA40 WT peptide (peptide)", "peptide": "SYSRQEGKDRIIFVTKEDHETPSSAELVA-NH2", "notes": "N-terminal region of MIA40 (CHCHD4); serine stands at position 4 where MIA40 has C4; also called MIA40 peptide; source: synthetic peptide"}},
  "key": {"[1]": {"target": "endogenous AIFM1 (human (endogenous in HEK293)) (UniProt O95831)", "test": "SEC; native lysates of HEK293 cells (WT, AIFM1 KO, AIFM1 KO with AIFM1-HA, AK2 KO with AK2A or AK2B; cycloheximide 4 h in one panel) on HiLoad 16/600 Superdex 200; fractions analysed by immunoblot, in part after a thiol shift with mmPEG24"}, "MIA40 (Homo sapiens)": {"target": "MIA40 (Homo sapiens) (UniProt Q8N4Q1)", "details": "cited from earlier work"}, "AIFM1(103-613) [2]": {"target": "T1, AIFM1(103-613) (human, UniProt O95831 103-613)", "T1 construct": "Flavoprotein with FAD; forms a dimer in the presence of NADH, which was added in most assays; also called soluble AIFM1 lacking the transmembrane domain; source: E. coli Rosetta2 (DE3), purified (Ni Sepharose)", "test": "SEC; purified proteins, AIFM1 to AK2 or MIA40 1:2 to 1:4, 100 mM NaCl, 20 mM Tris/Cl pH 7.4, with 0.1 mM NADH, 20 min, 4°C, Superdex 200", "details": "both partners purified"}, "AIFM1(103-613) [3]": {"target": "T1, AIFM1(103-613)", "test": "SEC; AIFM1 incubated with AK2A, MIA40 or the interaction site peptides with NADH; unbound NADH removed by gel filtration; samples at 0 and 7 h analysed by gel filtration, absorbance at 280 nm", "details": "both partners purified"}, "AIFM1(103-613) [4]": {"target": "T1, AIFM1(103-613)", "test": "cell-based or functional assay"}},
  "note": "No end group written: not given here.",
  "data": [
    {"molecule": "adenylate kinase 2 (AK2), endogenous (from UniProt P54819 1-239) (enzyme)", "values": [
      {"measurement": "percent of AK2 in the fractions of the complex", "setting": "[1]", "result": 5, "unit": "%"}
    ]},
    {"molecule": "AIFM1 (from UniProt O95831)", "values": [
      {"measurement": "Kd", "setting": "MIA40 (Homo sapiens)", "result": 180, "unit": "nM"}
    ]},
    {"molecule": "B1", "values": [
      {"measurement": "stoichiometry N", "setting": "AIFM1(103-613) [2]", "result": 2, "unit": "per AIFM1 dimer"},
      {"measurement": "half-life (t1/2) of the complex after removal of excess NADH", "setting": "AIFM1(103-613) [3]", "result": "> 7", "unit": "h"}
    ]},
    {"molecule": "B2", "values": [
      {"measurement": "apparent kcat of the NADH:DCIP oxidoreductase activity of AIFM1 with the peptide (3.3 μM); AIFM1 alone 0.37 s^−1 (DMSO)", "setting": "AIFM1(103-613) [4]", "result": 0.71, "unit": "s⁻¹"},
      {"measurement": "half-life (t1/2) of the complex after removal of excess NADH", "setting": "AIFM1(103-613) [3]", "result": "> 7", "unit": "h"}
    ]},
    {"molecule": "B3", "values": [
      {"measurement": "apparent kcat of the NADH:DCIP oxidoreductase activity of AIFM1 with the peptide (3.3 μM); AIFM1 alone 0.50 s^−1 (H2O)", "setting": "AIFM1(103-613) [4]", "result": 0.89, "unit": "s⁻¹"},
      {"measurement": "half-life (t1/2) of the complex after removal of excess NADH", "setting": "AIFM1(103-613) [3]", "result": "> 7", "unit": "h"}
    ]}
  ]
}
